Assay [1] addresses T1, protein A (UniProt P38507 37-477).
T1 construct: Bought (Pierce); immobilized on CM5 chip by amine coupling; also called recombinant protein A
The assay is described as follows: SPR (Biacore 3000), VH over immobilized protein A. The method, then:
Immobilizations were carried out at 50 μg/mL in 10 mM acetate buffer, pH 4.5, using the amine coupling kit supplied by the manufacturer (GE Healthcare). All measurements were carried out at 25° C. in HBS-EP buffer at a flow rate of 50 μL/min. Surfaces were regenerated by washing with the running buffer.
In general terms: In SPR one partner is held on a chip, and binding of the other changes the refractive index at the surface.

Assay [2] has as its target T1, protein A. The assay is described as follows: SPR, KD of the mutant against KD of the wild-type VH on protein A.
Assay [3] deals with T1, protein A. The experiment in a line: SPR (Biacore 3000), VH over immobilized protein A; value in parentheses obtained with higher concentration of monomer (footnote d). The method, then: For mutant VHs (HVHP44S, HVHB82S, HVHP421S, HVHP419S, HVHP430S, HVHP429S, HVHM81S, HVHP428S, HVHP420S, HVHM41S, HVHP423S, HVHP413S, HVHP426S, and HVHP414S), approximately 1,170 RUs and 1,240 RUs of recombinant protein A and ovalbumin (reference protein), respectively, were immobilized on research grade sensor chip CMS. Immobilizations were carried out at 50 μg/mL in 10 mM acetate buffer (pH 4.5 for both protein A and ovalbumin) using the amine coupling kit supplied by the manufacturer. All measurements were carried out at 25° C. in HBS-EP buffer at a flow rate of 20 μL/min or 40 μL/min for HVHB82S, HVHP421S, HVHP429S, HVHM41S, HVHM81S, HVHP423S, HVHP413S, HVHP426S, and HVHP414S or HVHP44S, HVHP419S, HVHP430S, HVHP428S, and HVHP420S, respectively. The protein A binding property of the wild-type counterparts were determined previously (To et al 2005).

The target in assay [4] is T2, human lysozyme (human, UniProt P61626 19-148).
T2 construct: Bought; passed through Superdex 75 before SPR
T2 sequence (looked up): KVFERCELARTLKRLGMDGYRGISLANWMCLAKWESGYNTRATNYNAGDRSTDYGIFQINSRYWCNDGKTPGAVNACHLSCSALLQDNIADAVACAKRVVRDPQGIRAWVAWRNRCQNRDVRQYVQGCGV
The experiment in a line: SPR (Biacore 3000), human lysozyme over immobilized VL. As for the experimental part: The affinities (KDs) of the anti-human lysozyme VLs to their antigen, human lysozyme, was also determined. The binding of human lysozyme to immobilized anti-human lysozyme VL binders was determined by surface plasmon resonance (SPR) using BIACORE 3000 (GE Healthcare). […] Immobilizations were carried out at concentrations of 10 μg/mL in 10 mM acetate at pH 4.5 using the amine coupling kit supplied by the manufacturer. Human lysozyme was passed through a Superdex 75 column (GE Healthcare) in HBS-EP buffer (10 mM HEPES, pH 7.4, 150 mM NaCl, 3 mM EDTA and 0.005% P20 surfactant) with flow rate of 0.5 mL/min to eliminate any possible aggregates prior to Biacore analysis. For the binding studies, analyses were carried out at 25° C. in 10 mM HEPES, pH 7.4 containing 150 mM NaCl, 3 mM EDTA and 0.005% surfactant P20. The flow rates used were 20 μL/min. For regeneration the surfaces were washed for 15 min with the running buffer. Data were analyzed with BIAevaluation 4.1 software. From the SPR profiles (FIG. 15), it can be seen that the anti-human lysozyme VLs indeed bind to their target antigen, lysozyme, confirming the binding results obtained by phage ELISA.

For another assay, the target named is T3, human serum albumin (human, UniProt P02768 25-609).
T3 construct: also called HSA
The experiment in a line: SPR (Biacore 3000), VL over immobilized human serum albumin. The method, then: (§1) The KD of the VL against human serum albumin was determined by surface plasmon resonance as described for other domains above. Briefly, the binding of the VL to immobilized human serum albumin was determined by SPR using the BIACORE 3000 (GE Healthcare). Approximately 1,600 RUs of human serum albumin, 1,900 RUs of bovine serum albumin and 2,200 RUs of ovalbumin were immobilized on a research grade CMS sensor chip. An ethanolamine blocked surface was prepared, as a reference, in exactly the same manner as the protein surfaces. Immobilizations were carried out at concentrations of 20 μg/mL in 10 mM acetate buffer pH 4.5 using the amine coupling kit supplied by the manufacturer. The VL was passed through a Superdex 75 column (GE Healthcare) to eliminate any possible aggregates prior to Biacore analysis. For the binding studies, analyses were carried out at 25° C. in 10 mM HEPES, pH 7.4 containing 150 mM NaCl, 3 mM EDTA and 0.005% surfactant P20. The flow rates used were 40 μL/min and sample volumes were 60 μL. For regeneration the surface was washed for 10 min with the running buffer. Data were analyzed with BIAevaluation 4.1 software.

A further assay concerns the target T4, ovalbumin (UniProt P01012 2-386).
T4 sequence (looked up): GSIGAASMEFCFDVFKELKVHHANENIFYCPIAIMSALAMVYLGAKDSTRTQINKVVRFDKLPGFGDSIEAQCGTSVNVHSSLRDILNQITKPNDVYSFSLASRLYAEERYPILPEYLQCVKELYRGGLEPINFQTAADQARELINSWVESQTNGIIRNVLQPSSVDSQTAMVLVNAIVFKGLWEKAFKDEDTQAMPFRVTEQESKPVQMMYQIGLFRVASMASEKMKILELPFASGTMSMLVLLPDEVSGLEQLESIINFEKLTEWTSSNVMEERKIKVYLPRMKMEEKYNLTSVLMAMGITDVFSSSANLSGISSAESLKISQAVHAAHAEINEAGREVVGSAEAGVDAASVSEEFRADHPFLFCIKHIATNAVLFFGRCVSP
The assay is described as follows: SPR (Biacore 3000), VL over immobilized ovalbumin (about 2,200 RUs). The method, then:
as §1

Another assay addresses bovine serum albumin (bovine, UniProt P02769 25-607). The assay is described as follows: SPR (Biacore 3000), VL over immobilized bovine serum albumin (about 1,900 RUs). As for the experimental part: as §1
Assay [5] has as its target T2, human lysozyme. The assay is described as follows: phage ELISA, phage-displayed VL on immobilized human lysozyme.

Substitutions are numbered along the chain they refer to.

T3 sequence (P02768 25-609 limits assumed): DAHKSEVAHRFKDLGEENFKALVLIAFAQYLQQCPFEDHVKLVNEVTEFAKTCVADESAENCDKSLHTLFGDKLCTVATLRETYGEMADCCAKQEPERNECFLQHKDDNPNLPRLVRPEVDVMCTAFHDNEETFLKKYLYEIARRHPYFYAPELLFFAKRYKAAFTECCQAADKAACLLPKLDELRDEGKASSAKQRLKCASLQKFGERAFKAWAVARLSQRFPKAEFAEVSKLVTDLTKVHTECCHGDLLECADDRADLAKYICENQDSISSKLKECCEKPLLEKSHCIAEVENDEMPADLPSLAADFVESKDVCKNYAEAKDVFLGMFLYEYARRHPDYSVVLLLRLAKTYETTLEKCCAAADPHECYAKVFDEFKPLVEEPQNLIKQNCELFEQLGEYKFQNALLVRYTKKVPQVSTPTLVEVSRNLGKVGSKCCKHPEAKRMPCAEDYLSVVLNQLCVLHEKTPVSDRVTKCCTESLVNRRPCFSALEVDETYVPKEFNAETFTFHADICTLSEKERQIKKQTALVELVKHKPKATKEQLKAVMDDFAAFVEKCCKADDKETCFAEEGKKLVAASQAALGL
bovine serum albumin, sequence (P02769 25-607 limits assumed): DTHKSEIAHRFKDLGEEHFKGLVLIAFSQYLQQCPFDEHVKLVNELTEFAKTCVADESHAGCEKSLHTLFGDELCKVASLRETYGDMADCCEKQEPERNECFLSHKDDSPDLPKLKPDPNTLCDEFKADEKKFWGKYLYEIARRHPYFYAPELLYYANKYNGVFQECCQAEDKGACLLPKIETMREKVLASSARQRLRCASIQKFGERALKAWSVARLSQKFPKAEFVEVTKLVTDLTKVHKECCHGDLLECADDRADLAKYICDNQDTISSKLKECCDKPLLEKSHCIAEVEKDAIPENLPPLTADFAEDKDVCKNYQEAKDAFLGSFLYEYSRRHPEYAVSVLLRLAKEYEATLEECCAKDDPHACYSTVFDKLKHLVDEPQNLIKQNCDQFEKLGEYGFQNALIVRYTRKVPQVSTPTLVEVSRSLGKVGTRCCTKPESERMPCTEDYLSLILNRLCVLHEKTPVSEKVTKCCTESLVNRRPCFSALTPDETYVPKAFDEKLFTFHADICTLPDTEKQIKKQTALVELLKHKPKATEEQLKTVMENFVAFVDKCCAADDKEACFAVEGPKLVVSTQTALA

B1: HVHM81S (antibody, V domains shown)
VH: EVQLVQSGGGLVQPGRSLRLSCAASGFTFDDYAMHWVRQAPGKGLEWVCGISGSGASTYYADSVKGRFTCSRDNSKNTLYLQMNSLRAGDTALYYCARQSITGPTGAFDVWGQGTMVTVSS
notes: Cys49/Cys69 (Kabat) mutant of HVHM81; VH single-domain antibody; tag not specified
B1: in the assay with protein A [1], binding was put at a Kd of 2100 nM. The “fold reduction in protein A binding (increase in KD) against wild-type HVHM81” value with protein A [2] is 1.6 fold.

B2: HVHP429S (antibody, V domains shown)
VH: EVQLVESGGTLVQPGGSLRLSCAASGFTFINYAMSWVRQAPDKGLDWVCTISNNGGATYYADSVKGRFTCSRDNSNNTLYLQMNSLRPDDTAVYYCAKGPINTGRYGDWGQGTLVTVSS
notes: Cys49/Cys69 (Kabat) mutant of HVHP429; VH single-domain antibody; tag not specified
As to B2, the Kd with protein A [1] worked out at 5500 nM; in the assay with protein A [3], 3400 nM.

B3: HVLHLQI (antibody, V domains shown)
VL: DIQMTQSPSSLSASVGDRVTITCRASQSIQIMLDWYQQKPGKAPKLLCFGASFLISGVPSRFSCSGSGTDFTLTISNLQPEDFATYYCRQTWTPPAPTFGHGTKVTVL
notes: Anti-human lysozyme VL single-domain antibody from the HVLP324S library (Cys48/Cys64); not shown: C-terminal His6 tag
B3 yielded a Kd in the assay with human lysozyme [4] of 2600 nM.

B4: HVLHLYS (antibody, V domains shown)
V domain: DIQMTQSPSSLSASVGDRVTITCQASQSIYSKLYWYQQKPGKAPKLLCFPASLLWSGVPSRFSCSGSGTDFTLTISNLQPEDFATYYCLQNAADPHRTFGHGTKVRL
notes: as for B3
B4 displayed a Kd in the assay with human lysozyme [4] of 6400 nM.

B5: HVHM41S (antibody, V domains shown)
VH: QVQLVQSGGGLVQPGRSLRLSCAASGFAFSSYAMSWVRQAPGKGLEWVCAISGGGDHTYYADSVKGRFTCSRDNSKNTLYLQMNSLRAEDTAVYYCAKEGMVRGVSSAPFDYWGQGTLVTVSS
notes: Cys49/Cys69 (Kabat) mutant of HVHM41; VH single-domain antibody; tag not specified
As for B5, the Kd was determined as 1500 nM with protein A [1] and 1800 nM in the assay with protein A [3].

B6: HVLHSA1 (antibody, V domains shown)
VL: DIQMTQSPSSLSASVGDRVTITCRASQSISTYLNWYQQKPGKAPKLLCFGASRLNSGVPSRFSCSGSGTDFTLTISNLQPEDFATYYCRQLFPLPDRRTFGHGTKVTVL
notes: Anti-human serum albumin VL single-domain antibody from the HVLP324S library (Cys48/Cys64); also called anti-human serum albumin VL; not shown: C-terminal His6 tag
Take B6: in the assay with human serum albumin, the Kd is 800 nM. Moreover, the binding result with ovalbumin and with bovine serum albumin was “no binding” each time.

B7: HVHPC235S (antibody, V domains shown)
VH: QVQLVESGGGLIKPGGSLRLSCAASGFSVISESMTWVRQAPGKGLEWVCAISSSGGSTYYADSVKGRFTCSRDNSKNTVHLQMNSLRAEDTAVYYCAAKKIDGARYDYWGQGTMVTVSS
notes: Cys49/Cys69 (Kabat) mutant of HVHPC235; VH single-domain antibody; tag not specified; also called HVHAmC235S; HVHP235S
Molecule B7 returned a Kd with protein A [1] of 3000 nM. For the same molecule, in the assay with protein A [2], the “fold reduction in protein A binding (increase in KD) against wild-type HVHPC235” value is 10 fold.

B8: HVLHLNN (antibody, V domains shown)
VL: DIQMTQSPSSLSASVGDRVTITCSASQSINNRLYWYQQKPGKAPKLLCFPASFLFSGVPSRFSCSGSGTDFTLTISNLQPEDFATYYCQQSYSTPRTFGHGTKVTVL
notes: as for B3
The molecule B8 gave a Kd with human lysozyme [4] of 200 nM.

B9: HVLHLDS (antibody, V domains shown)
VL: B8 VL with S24T, A25V, S28G, N30D, N31S, F53L, F55E
notes: as for B3
B9: in the assay with human lysozyme [4], the Kd was 6100 nM.

B10: HVLHLFL (antibody, V domains shown)
VL: B8 VL with S24L, N30F, N31L, R32Y, Y34D, P50F, F53T, F55E
notes: Anti-human lysozyme VL from the HVLP324S library; KD not determined
For B10, in the assay with human lysozyme [5], the binding result was “binds”.

B11: HVLHLNE (antibody, V domains shown)
VL: B8 VL with S24D, N31E, F53I, F55T, Q89R, S91P, Y92R, T94G, R96S
notes: as for B3
For B11, the Kd with human lysozyme [4] is 60 nM.

B12: HVHP419S (antibody, V domains shown)
VH: QLQLQESGGGLVQPGGSLRLSCAASGFTFSSYAMSWVRQAPGKGLEWVCAISGSGGSTYYADSVKGRFTCSRDNSKNSLYLQMNSLGAEDTAVYYCARSWSGSSYGGDLDSWGQGTLVTVSS
notes: Cys49/Cys69 (Kabat) mutant of HVHP419; VH single-domain antibody; tag not specified
Regarding B12, the values for the Kd in the assay with protein A [1] and with protein A [3] were 4800 nM and 3200 nM, respectively.

B13: HVLHLRN (antibody, V domains shown)
VL: DIQMTQSPSSLSASVGDRVTITCKASQGIRNRLYWYQQKPGKAPKLLCFPASILDSGVPSRFSCSGSGTDFTLTISNLQPEDFATYYCAQQPGLPNSRTFGHGTKVTVL
notes: as for B3
As for B13, the Kd in the assay with human lysozyme [4] worked out at 50 nM.

B14: HVLHLAQ (antibody, V domains shown)
VL: DIQMTQSPSSLSASVGDRVTITCGASQSIAQRLYWYQQKPGKAPKLLCFPASLLHSGVPSRFSCSGSGTDFTLTISNLQPEDFATYYCAQRASPPRPTFGHGTKVTVL
notes: as for B3
Regarding B14, the affinity with human lysozyme [4], expressed as Kd, was 200 nM.

B15: HVHP426S (antibody, V domains shown)
VH: QVQLVQSGGGVVQPGRSLRLSCAASGFIVDGYAMHWVRQAPGQGLEWVCVTNNGGSTSYADSVKGRFTCSRDNSKNTVYLQMNSLRAEDTAVYYCARQSITGPTGAFDIWGQGTMVTVSS
notes: Cys49/Cys69 (Kabat) mutant of HVHP426; VH single-domain antibody; tag not specified
As to B15, binding with protein A [1] was characterised by a dissociation constant (Kd) of 3400 nM.

B16: HVLHLEM (antibody, V domains shown)
VL: DIQMTQSPSSLSASVGDRVTITCQASQGIEMFLQWYQQKPGKAPKLLCFAASTLQSGVPSRFSCSGSGTDFTLTISNLQPEDFATYYCVQPGVAPPPGTFGHGTKVTVL
notes: as for B3
For B16, the Kd with human lysozyme [4] is above 73000 nM.

One may read the Kd as the free concentration of one partner at which half of the binding sites on the other are occupied at equilibrium, for simple one-to-one binding.
